We go through 26 molecules from US20220098304A1 (JIANGSU HENGRUI MEDICINE, published 2022).

Positions count from the first letter of the chain named. Names and notes keep the numbering of the source.

Sequences and labels used below:
B1: Hu33-1.IgG4AA (antibody, V domains shown)
VH: EVQLVESGGGLVQPGGSLRLSCAASGFTFSSYAMSWVRQAPGKGLEWVATISGGGVDTYYQDNVQGRFTISRDNAKNSLYLQMNSLRAEDTAVYYCARPYGHGYFDVWGQGTTVTVSS
VL: DIQMTQSPSSLSASVGDRVTITCRASQDINNFLNWYQQKPGKAPKLLIYYTSSLHSGVPSRFSGSGSGTDFTLTISSLQPEDFATYYCQQGNTLPWTFGGGTKVEIKR
notes: Full-length IgG4-AA, kappa
B2: Hu33-9.IgG4AA (antibody)
heavy: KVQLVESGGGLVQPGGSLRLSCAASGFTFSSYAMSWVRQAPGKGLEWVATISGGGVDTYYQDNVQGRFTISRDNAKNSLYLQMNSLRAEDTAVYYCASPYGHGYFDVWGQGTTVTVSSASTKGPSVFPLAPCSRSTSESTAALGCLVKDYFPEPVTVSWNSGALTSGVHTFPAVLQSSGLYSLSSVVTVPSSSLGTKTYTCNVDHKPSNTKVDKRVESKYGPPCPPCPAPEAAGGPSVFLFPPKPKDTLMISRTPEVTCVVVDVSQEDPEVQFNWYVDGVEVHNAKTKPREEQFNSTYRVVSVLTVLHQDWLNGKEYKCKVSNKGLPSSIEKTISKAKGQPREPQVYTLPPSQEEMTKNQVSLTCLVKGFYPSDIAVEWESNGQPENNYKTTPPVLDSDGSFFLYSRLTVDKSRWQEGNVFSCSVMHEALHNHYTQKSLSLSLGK
light: DIQMTQSPSSLSASVGDRVTITCRASQDINNFLNWYQQKPGGAVKLLIYYTSSLHSGVPSRFSGSGSGTDYTLTISSLQPEDFATYYCQQGNTLPWTFGGGTKVEIKRTVAAPSVFIFPPSDEQLKSGTASVVCLLNNFYPREAKVQWKVDNALQSGNSQESVTEQDSKDSTYSLSSTLTLSKADYEKHKVYACEVTHQGLSSPVTKSFNRGEC
notes: Full-length IgG4-AA, kappa
B3: Hu33-4.IgG4AA (antibody, V domains shown)
VH: B1 VH
VL: B1 VL with F71Y
notes: Full-length IgG4-AA, kappa
B4: Hu33-8.IgG4AA (antibody)
heavy: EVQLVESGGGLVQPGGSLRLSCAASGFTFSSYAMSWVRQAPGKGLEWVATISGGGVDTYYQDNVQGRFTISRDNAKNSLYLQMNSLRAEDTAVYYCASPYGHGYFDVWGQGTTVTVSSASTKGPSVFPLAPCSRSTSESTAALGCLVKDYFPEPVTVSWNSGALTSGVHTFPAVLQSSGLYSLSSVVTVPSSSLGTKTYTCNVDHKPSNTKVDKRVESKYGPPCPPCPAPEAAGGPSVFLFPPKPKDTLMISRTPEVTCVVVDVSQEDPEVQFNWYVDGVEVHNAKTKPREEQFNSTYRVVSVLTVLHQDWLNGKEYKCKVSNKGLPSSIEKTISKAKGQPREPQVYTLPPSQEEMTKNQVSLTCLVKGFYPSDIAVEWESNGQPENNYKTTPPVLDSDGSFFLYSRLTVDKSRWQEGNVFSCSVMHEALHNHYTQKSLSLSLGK
light: B2 light
notes: Full-length IgG4-AA, kappa
B5: Hu33-7.IgG4AA (antibody, V domains shown)
VH: B1 VH
VL: B1 VL with K42G, P44V, F71Y
notes: Full-length IgG4-AA, kappa
B6: Hu23-1.IgG4AA (antibody)
heavy: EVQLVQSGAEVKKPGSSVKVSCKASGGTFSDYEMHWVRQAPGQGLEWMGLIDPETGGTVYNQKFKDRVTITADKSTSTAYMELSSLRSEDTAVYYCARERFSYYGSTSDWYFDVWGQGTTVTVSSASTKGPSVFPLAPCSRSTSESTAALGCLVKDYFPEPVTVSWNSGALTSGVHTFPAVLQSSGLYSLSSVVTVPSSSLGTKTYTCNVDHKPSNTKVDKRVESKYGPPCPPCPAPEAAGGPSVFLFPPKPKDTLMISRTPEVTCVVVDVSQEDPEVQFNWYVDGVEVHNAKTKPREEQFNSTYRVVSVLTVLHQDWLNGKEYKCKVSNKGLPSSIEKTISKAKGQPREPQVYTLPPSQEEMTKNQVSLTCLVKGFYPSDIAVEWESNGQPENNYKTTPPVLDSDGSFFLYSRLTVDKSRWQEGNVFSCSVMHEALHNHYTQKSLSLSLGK
light: DIVMTQTPLSLPVTPGEPASISCRSSQSLVHSNGNTYLEWYLQKPGQSPQLLIYKVSNRFSGVPDRFSGSGSGTDFTLKISRVEAEDVGVYYCFQGSHVPYTFGGGTKVEIKRTVAAPSVFIFPPSDEQLKSGTASVVCLLNNFYPREAKVQWKVDNALQSGNSQESVTEQDSKDSTYSLSSTLTLSKADYEKHKVYACEVTHQGLSSPVTKSFNRGEC
notes: Full-length IgG4-AA (S228P, F234A, L235A), kappa
B7: Hu23-9.IgG4AA (antibody, V domains shown)
VH: EVQLVQSGAEVKKPGSSVKVSCKASGGTFSDYEMHWVRQAPGQGLEWMGLIDPETGGTVYNQKFKDRVTITADKSTSTAYMELSSLRSEDTAVYYCARERFSYYGSTSDWYFDVWGQGTTVTVSS
VL: DIVMTQTPLSLPVTPGEPASISCRSSQSLVHSQGNTYLEWYLQKPGQSPQLLIYKVSNRFSGVPDRFSGSGSGTDFTLKISRVEAEDVGVYYCFQGSHVPYTFGGGTKVEIKR
notes: Full-length IgG4-AA, kappa; also called Hu23LCDR1 (N28Q)
B8: Hu23-2.IgG4AA (antibody)
heavy: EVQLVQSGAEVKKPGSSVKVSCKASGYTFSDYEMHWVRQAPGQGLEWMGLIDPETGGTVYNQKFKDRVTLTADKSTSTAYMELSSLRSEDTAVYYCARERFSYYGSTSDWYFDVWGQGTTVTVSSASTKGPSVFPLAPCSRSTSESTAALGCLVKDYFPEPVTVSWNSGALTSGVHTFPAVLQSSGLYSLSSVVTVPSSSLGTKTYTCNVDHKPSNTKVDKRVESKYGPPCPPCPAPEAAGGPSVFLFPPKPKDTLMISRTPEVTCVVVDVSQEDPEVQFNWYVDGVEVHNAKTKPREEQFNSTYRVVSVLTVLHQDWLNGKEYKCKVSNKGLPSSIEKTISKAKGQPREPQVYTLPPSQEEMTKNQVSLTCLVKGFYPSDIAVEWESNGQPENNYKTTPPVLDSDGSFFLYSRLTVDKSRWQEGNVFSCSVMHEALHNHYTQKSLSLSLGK
light: B6 light
notes: Full-length IgG4-AA, kappa
B9: Hu23-14.IgG4AA (antibody, V domains shown)
VH: B7 VH
VL: B7 VL with Q33N, G34V
notes: Full-length IgG4-AA, kappa; also called Hu23LCDR1 (G29V)
B10: Hu23-12.IgG4AA (antibody, V domains shown)
VH: B7 VH
VL: B7 VL with Q33D
notes: Full-length IgG4-AA, kappa; also called Hu23LCDR1 (N28D)
B11: Hu23-8.IgG4AA (antibody)
heavy: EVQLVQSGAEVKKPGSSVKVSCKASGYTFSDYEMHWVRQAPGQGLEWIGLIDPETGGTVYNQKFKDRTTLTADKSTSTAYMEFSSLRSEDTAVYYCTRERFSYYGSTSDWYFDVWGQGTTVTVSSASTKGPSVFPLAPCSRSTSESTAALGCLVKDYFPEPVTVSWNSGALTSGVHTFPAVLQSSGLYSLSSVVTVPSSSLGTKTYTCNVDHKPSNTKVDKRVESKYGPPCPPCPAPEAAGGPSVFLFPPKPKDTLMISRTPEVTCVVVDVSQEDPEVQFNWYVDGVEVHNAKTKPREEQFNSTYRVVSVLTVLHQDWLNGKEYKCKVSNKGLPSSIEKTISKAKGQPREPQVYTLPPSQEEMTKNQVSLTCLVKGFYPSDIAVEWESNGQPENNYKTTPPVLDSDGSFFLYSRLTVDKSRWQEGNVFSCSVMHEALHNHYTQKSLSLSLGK
light: B6 light with I2G
notes: Full-length IgG4-AA, kappa
B12: Hu23-5.IgG4AA (antibody)
heavy: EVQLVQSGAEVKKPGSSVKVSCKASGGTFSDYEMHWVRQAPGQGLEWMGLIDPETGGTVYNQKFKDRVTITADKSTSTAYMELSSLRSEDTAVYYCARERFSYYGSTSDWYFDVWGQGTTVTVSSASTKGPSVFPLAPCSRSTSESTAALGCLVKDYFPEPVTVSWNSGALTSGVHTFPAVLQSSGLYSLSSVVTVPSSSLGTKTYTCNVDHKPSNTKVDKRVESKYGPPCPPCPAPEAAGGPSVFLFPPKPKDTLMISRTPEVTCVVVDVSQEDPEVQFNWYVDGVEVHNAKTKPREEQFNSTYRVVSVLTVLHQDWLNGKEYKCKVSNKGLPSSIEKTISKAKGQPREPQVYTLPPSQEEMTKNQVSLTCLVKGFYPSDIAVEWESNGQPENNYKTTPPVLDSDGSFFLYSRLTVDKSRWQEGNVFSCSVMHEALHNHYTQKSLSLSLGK
light: B6 light with I2G
notes: Full-length IgG4-AA, kappa
B13: Hu23-3.IgG4AA (antibody)
heavy: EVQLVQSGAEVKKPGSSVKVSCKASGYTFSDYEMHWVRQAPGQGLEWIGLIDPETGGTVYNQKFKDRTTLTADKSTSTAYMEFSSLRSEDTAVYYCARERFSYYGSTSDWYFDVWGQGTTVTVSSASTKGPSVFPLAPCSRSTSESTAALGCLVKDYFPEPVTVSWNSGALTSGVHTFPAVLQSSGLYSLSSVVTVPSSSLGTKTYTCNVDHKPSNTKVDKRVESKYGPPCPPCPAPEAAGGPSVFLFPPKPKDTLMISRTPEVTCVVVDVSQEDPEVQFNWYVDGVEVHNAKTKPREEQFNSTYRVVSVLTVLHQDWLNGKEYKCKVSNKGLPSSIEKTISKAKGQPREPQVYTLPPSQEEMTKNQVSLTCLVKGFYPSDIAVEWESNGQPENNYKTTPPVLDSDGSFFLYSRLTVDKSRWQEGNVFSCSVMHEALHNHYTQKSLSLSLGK
light: B6 light
notes: Full-length IgG4-AA, kappa
B14: Hu23-10.IgG4AA (antibody, V domains shown)
VH: B7 VH
VL: B7 VL with Q33L
notes: Full-length IgG4-AA, kappa; also called Hu23LCDR1 (N28L)
B15: Hu23-6.IgG4AA (antibody)
heavy: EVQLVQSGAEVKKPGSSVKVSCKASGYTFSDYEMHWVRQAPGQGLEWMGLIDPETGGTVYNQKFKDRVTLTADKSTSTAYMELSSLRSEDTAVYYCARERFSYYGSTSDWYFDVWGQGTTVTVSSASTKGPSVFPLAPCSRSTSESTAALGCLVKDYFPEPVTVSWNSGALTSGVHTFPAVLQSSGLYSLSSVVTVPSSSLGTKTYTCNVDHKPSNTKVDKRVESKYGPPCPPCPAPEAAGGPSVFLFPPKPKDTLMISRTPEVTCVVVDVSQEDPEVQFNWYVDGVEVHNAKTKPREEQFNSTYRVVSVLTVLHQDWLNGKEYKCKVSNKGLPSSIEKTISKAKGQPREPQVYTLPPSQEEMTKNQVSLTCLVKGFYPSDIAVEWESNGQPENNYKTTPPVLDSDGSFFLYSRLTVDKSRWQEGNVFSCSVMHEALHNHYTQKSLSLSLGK
light: B6 light with I2G
notes: Full-length IgG4-AA, kappa
B16: Hu23-4.IgG4AA (antibody)
heavy: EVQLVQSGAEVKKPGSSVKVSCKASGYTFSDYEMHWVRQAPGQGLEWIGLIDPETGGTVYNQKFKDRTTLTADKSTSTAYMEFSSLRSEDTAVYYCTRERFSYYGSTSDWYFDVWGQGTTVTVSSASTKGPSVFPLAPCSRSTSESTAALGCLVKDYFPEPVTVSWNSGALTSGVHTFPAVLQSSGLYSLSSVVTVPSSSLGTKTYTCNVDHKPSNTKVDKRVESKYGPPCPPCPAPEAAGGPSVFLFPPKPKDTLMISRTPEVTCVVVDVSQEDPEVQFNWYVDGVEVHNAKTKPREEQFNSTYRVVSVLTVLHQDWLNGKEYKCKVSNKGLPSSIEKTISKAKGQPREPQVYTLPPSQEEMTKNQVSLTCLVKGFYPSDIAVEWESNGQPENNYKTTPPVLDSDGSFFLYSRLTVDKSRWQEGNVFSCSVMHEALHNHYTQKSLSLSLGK
light: B6 light
notes: Full-length IgG4-AA, kappa
B17: Hu23-13.IgG4AA (antibody, V domains shown)
VH: B7 VH
VL: B7 VL with Q33N, G34A
notes: Full-length IgG4-AA, kappa; also called Hu23LCDR1 (G29A)
B18: Hu23-7.IgG4AA (antibody)
heavy: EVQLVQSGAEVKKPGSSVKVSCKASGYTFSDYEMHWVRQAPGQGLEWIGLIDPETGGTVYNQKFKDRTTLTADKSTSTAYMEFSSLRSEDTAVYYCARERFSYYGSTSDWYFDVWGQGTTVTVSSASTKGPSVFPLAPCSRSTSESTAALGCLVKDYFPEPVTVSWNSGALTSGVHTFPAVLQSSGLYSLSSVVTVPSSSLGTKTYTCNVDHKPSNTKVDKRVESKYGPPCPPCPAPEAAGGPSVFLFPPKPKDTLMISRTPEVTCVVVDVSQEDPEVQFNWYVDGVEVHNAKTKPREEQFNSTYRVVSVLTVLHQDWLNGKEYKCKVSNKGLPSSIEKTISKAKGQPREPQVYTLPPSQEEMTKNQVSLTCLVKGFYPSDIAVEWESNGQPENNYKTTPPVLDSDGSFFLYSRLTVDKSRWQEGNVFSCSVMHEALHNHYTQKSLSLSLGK
light: B6 light with I2G
notes: Full-length IgG4-AA, kappa
B19: murine antibody M23 (antibody, V domains shown)
VH: QVQLQQSGAELVRPGASVTLSCKASGYTFTDYEMHWVKQTPIHGLEWIGLIDPETGGTVYNQKFKDKTILTADKSSSTAYMEFRSLTSEDSAVYHCTRERFSYYGSTSDWYFDVWGTGTTVTVSS
VL: DGLMTQTPLSLPVSLGDHASISCRSSQSLVHSNGNTYLEWYLQKPGQSPKLLIYKVSNRFSGVPDRFSGSGSGTDFTLKISRVEAEDLGIYYCFQGSHVPYTFGGGTKLEIK
B20: murine antibody M32 (antibody, V domains shown)
VH: QVQLQQSGAELVRPGASVTLSCKASDFTFTDYEIHWVKQTPVHGLEWIGLFDPETGGIVYNQKFKGKAILTADKSSNTAYMEFRSLTSEDSAVYYCTREGYNRDWYFDVWGTGTTVTVSS
VL: B19 VL with G2V, H18Q, L29I, T102A
B21: murine antibody M33 (antibody, V domains shown)
VH: KVMLVESGGGLVKPGGSLKLSCAASGFTFSSYAMSWVRQTPEKRLEWVATISGGGVDTYYQDNVQGRFTISRDNAKNTLYLQMSSLRSEDTALYYCASPYGHGYFDVWGTGTTVTVSS
VL: DIQMTQTTSSLSASLGDRVTISCRASQDINNFLNWYQQKPDGTVKLLIYYTSSLHSGVPSRFSGSGSGTDYSLTISNLEQEDIATYFCQQGNTLPWTFGGGTKLEIK
B22: Hu32a-29.IgG4AA (antibody, V domains shown)
VH: EVQLVQSGAEVKKPGSSVKVSCKASGFTFSDYEIHWVRQAPGQGLEWMGLFDPETGGIVYNQKFKGRVTLTADKSTSTAYMELSSLRSEDTAVYYCTREGYNRDWYFDVWGQGTTVTVSS
VL: B7 VL with Q33T
notes: Full-length IgG4-AA, kappa
B23: Hu32a-57.IgG4AA (antibody, V domains shown)
VH: B22 VH with M48I, V68A, L83F
VL: B7 VL with Q33T
notes: Full-length IgG4-AA, kappa
B24: Hu32a-71.IgG4AA (antibody, V domains shown)
VH: B22 VH with G26D, S30T, M48I, V68A, L83F
VL: B7 VL with Q33T
notes: Full-length IgG4-AA, kappa
B25: Hu32a-15.IgG4AA (antibody, V domains shown)
VH: B22 VH with F27G, L70I, T97A
VL: B7 VL with Q33T
notes: Full-length IgG4-AA, kappa
B26: Hu32a-43.IgG4AA (antibody, V domains shown)
VH: B22 VH with G26D
VL: B7 VL with Q33T
notes: Full-length IgG4-AA, kappa

The target of the assay is T1, Human PD-1-His protein (Cat. #10377H08H, Sino Biological) (human, UniProt Q15116 25-167).
T1 construct: Bought protein; also called hPD-1-His; hu PD-1-his; not shown: His tag of the bought protein
T1 sequence (Q15116 25-167 limits assumed): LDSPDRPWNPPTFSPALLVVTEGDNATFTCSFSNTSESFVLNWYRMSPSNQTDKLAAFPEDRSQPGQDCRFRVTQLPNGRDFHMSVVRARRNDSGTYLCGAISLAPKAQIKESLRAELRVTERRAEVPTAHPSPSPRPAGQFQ
Description: SPR (Biacore), antibody captured on Protein A chip, PD-1 in flow. An excerpt: IgG was affinity captured by using a Protein A biosensor chip (Cat. #29127556, GE). Human PD-1 antigen (Cat. #10377H08H, Sino Biological) and Cyno PD-1 antigen (purchased from Sino Biological) flowed across the surface of the chip, and the binding and dissociation curves were obtained by real time detection of PD-1 antibody and antigen PD-1 reaction signals by a Biacore T200 instrument. After the dissociation of each experimental cycle was completed, the biosensor chip was washed and regenerated with 10 mM Glycine-HCl pH 1.5 buffer. The experimental buffer system was 1×HBS-EP buffer solution (Cat #BR-1001-88, GE). After the experiment, GE Biacore T200 Evaluation version 3.0 software was used to fit the data with a (1:1) Langmuir model, and the affinity value was obtained.
In general terms: Surface plasmon resonance follows binding to a sensor surface in real time, without labels.
On to B1, for which binding was characterised by a dissociation constant (Kd) of 19.3 nM, the koff came to 0.00128 s⁻¹ and the on-rate constant (kon) amounted to 66100 M⁻¹ s⁻¹.
B2 yielded a Kd of 1.09 nM, a koff of 0.000153 s⁻¹ and a kon of 140000 M⁻¹ s⁻¹.
B3 showed a Kd of 31.4 nM, a koff of 0.00255 s⁻¹ and a kon of 81100 M⁻¹ s⁻¹.
B4 showed a Kd of 1.06 nM, a koff of 0.000162 s⁻¹ and an association rate constant (kon) of 153000 M⁻¹ s⁻¹.
B5 gave a Kd of 33.8 nM, a koff of 0.0026 s⁻¹ and an association rate constant (kon) of 76900 M⁻¹ s⁻¹.
As for B6, binding was characterised by a dissociation constant (Kd) of 3.2 nM, the koff came to 0.00011 s⁻¹ and the kon worked out at 34300 M⁻¹ s⁻¹.
On the same counts, the results for B7 are 2.15 nM, 0.000132 s⁻¹ and 61600 M⁻¹ s⁻¹.
B8 came in with an equilibrium dissociation constant (Kd) of 5.86 nM, a koff of 0.000161 s⁻¹ and a kon of 27400 M⁻¹ s⁻¹.
On to B9, for which binding was characterised by a dissociation constant (Kd) of 2.22 nM, the dissociation rate constant (koff) turned out to be 0.000161 s⁻¹ and the kon came out at 72300 M⁻¹ s⁻¹.
In the case of B10, the Kd came to 2.02 nM, the off-rate (koff) came to 0.00011 s⁻¹ and the on-rate (kon) turned out to be 54500 M⁻¹ s⁻¹.
B11 registered a Kd of 3.56 nM, an off-rate (koff) of 0.000147 s⁻¹ and an association rate constant (kon) of 41100 M⁻¹ s⁻¹.
In turn, B12 came in with a Kd of 3.82 nM, a dissociation rate constant (koff) of 0.000114 s⁻¹ and a kon of 29900 M⁻¹ s⁻¹.
For the molecule B13, binding was put at a Kd of 5.46 nM, the koff was 0.00016 s⁻¹ and the kon was found to be 29300 M⁻¹ s⁻¹.
The molecule B14 had an equilibrium dissociation constant (Kd) of 2.77 nM, a koff of 0.000153 s⁻¹ and a kon of 55100 M⁻¹ s⁻¹.
The molecule B15 showed a Kd of 5.57 nM, an off-rate constant (koff) of 0.000155 s⁻¹ and a kon of 27900 M⁻¹ s⁻¹.
Turning to B16, the Kd stood at 3.39 nM, the off-rate constant (koff) stood at 0.000144 s⁻¹ and the kon is 42400 M⁻¹ s⁻¹.
B17 returned a Kd of 2.88 nM, a koff of 0.000122 s⁻¹ and an on-rate (kon) of 42400 M⁻¹ s⁻¹.
B18 returned a Kd of 5.97 nM, a koff of 0.000166 s⁻¹ and an on-rate (kon) of 27700 M⁻¹ s⁻¹.
Consider B19, for which the dissociation constant (Kd) was found to be 2.89 nM, the koff is 0.000132 s⁻¹ and the kon amounted to 45700 M⁻¹ s⁻¹.
On the same counts, the results for B20 are 5.3 nM, 0.000415 s⁻¹ and 78300 M⁻¹ s⁻¹.
B21: the Kd worked out at 0.737 nM, the koff was found to be 0.000227 s⁻¹ and the kon is 308000 M⁻¹ s⁻¹.
As for B22, binding was put at a Kd of 7.86 nM, the koff was found to be 0.00062 s⁻¹ and the association rate constant (kon) is 78900 M⁻¹ s⁻¹.
As to B23, the affinity, expressed as Kd, was 7.85 nM; the off-rate (koff) stood at 0.000624 s⁻¹; the kon stood at 79400 M⁻¹ s⁻¹.
The molecule B24 yielded a Kd of 4.61 nM, an off-rate constant (koff) of 0.000396 s⁻¹ and a kon of 86000 M⁻¹ s⁻¹.
B25 displayed a Kd of 51.4 nM, a koff of 0.00252 s⁻¹ and an association rate constant (kon) of 48900 M⁻¹ s⁻¹.
For B26, in that order: 8.16 nM, 0.000685 s⁻¹ and 83900 M⁻¹ s⁻¹.

Usually Kd stands for the equilibrium constant for the complex coming apart. High values mean lower affinity, low ones higher affinity. The term koff denotes a measure of how fast the partners let go of each other. A low value points to slow dissociation. The kon is a measure of how fast the partners come together. A higher kon goes with fast association.
